Laboratory results published in paper PMC12717039, “Novel mutations in the RECQL4 gene affect its helicase functions, interactions with the BLM helicase and chemotherapeutics-induced cell death”.

Legend:
RECQL4 427-1116 WT = molecular target: T1, RECQL4 427-1116 WT (Homo sapiens, UniProt O94761 427-1116); test: MST; 5 mM Mg2+; no ATP mentioned; Kd only in figure; Buffer D: 10 mM HEPES pH 7.5, 50 mM NaCl, 5 mM MgCl2, 2 mM DTT (EMSA, 100 nM Cy3-DNA, 6% native PAGE); MST with 10 nM Cy5-DNA, buffer not restated; temperature; details: protein: recombinant; tags: GST tag removed by TEV; label: 5' Cy5 on strand 1; 3' overhang 15 nt on strand 1, 15 bp duplex
T1 sequence: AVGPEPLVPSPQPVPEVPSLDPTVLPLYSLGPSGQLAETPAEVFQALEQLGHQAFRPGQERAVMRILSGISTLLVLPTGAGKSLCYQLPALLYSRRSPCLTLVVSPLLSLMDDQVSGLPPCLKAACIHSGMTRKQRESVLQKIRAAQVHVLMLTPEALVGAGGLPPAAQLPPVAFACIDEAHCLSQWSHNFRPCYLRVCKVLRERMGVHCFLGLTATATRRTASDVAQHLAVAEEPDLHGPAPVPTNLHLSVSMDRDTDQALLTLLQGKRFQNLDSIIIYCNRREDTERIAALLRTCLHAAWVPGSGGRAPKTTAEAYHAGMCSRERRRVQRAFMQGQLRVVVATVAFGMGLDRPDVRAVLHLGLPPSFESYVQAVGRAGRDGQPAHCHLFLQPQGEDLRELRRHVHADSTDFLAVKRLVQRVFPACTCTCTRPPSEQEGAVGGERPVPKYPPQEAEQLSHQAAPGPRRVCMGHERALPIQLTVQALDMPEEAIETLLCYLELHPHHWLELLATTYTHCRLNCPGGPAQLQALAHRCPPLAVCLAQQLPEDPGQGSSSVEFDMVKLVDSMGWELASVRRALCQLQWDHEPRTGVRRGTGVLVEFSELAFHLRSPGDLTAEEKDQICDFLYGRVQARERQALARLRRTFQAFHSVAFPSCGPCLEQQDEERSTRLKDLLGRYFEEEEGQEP

RECQL4 427-1116 P532S = molecular target: T2, RECQL4 427-1116 P532S (Homo sapiens, UniProt O94761 427-1116, P532S); test: as above; details: protein: recombinant; tags: GST tag removed by TEV; label: 5' Cy5 on strand 1; 3' overhang 15 nt on strand 1, 15 bp duplex
T2 sequence: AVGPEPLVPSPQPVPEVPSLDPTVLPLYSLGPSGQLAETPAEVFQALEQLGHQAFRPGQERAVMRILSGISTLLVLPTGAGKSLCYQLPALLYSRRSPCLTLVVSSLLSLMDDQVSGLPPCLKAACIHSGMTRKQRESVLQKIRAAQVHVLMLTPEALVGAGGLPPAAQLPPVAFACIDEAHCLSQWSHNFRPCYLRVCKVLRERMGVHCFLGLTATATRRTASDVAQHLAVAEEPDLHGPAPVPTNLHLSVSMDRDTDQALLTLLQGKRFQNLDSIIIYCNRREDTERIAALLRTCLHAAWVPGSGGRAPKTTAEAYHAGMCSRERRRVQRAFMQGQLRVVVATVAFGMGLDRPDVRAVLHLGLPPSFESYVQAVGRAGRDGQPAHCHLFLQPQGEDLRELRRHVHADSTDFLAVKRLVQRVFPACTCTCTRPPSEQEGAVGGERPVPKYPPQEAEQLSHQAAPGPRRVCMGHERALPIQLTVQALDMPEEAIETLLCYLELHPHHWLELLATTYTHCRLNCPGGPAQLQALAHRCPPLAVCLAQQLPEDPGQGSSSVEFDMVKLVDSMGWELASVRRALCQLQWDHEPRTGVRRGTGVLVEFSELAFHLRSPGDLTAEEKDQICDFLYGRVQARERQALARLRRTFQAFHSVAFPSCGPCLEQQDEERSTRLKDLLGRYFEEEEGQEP

B1: OH-Cy5/CQ dsDNA with 3' ss overhang (MST) (dsDNA)
DNA 1: CCATTCCACCCTCTATTTTTTTTTTTTTTT
DNA 2: TAGAGGGTGGAATGG
B1: binds (RECQL4 427-1116 WT); binds (RECQL4 427-1116 P532S).
